Reference: patent US20220204643A1 (published 2022)

How the values were obtained:
[1] = target: T1, HAUS augmin like complex subunit 1, transcript variant 1 (human, UniProt Q96CS2 1-278)
T1 construct: also called HAUS1
T1 sequence: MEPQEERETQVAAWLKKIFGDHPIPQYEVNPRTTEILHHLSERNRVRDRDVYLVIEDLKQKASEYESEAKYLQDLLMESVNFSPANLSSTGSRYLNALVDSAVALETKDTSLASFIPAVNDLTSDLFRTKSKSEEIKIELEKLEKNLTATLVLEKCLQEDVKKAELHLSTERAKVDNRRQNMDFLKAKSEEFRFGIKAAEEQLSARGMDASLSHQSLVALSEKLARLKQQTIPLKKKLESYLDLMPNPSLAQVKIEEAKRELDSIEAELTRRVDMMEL

[2] = target: T2, Transforming growth factor beta 3 (human, UniProt P10600 24-412)
T2 construct: also called TGFB3
T2 sequence: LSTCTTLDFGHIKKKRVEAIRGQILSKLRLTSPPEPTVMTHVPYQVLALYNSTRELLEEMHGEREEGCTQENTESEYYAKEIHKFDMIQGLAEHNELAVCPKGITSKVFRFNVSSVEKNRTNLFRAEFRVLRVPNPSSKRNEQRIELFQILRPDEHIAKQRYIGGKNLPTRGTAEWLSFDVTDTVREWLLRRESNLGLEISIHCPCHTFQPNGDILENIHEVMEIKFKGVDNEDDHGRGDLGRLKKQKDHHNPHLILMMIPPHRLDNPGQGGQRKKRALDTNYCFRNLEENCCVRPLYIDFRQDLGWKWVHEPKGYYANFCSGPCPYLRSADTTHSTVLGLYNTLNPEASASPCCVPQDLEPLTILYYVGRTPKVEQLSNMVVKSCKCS

chymotrypsinogen B2 = target: T3, chymotrypsinogen B2 (human, UniProt Q6GPI1 19-263, limits assumed)
T3 construct: also called CTRB2
T3 sequence (Q6GPI1 19-263 limits assumed): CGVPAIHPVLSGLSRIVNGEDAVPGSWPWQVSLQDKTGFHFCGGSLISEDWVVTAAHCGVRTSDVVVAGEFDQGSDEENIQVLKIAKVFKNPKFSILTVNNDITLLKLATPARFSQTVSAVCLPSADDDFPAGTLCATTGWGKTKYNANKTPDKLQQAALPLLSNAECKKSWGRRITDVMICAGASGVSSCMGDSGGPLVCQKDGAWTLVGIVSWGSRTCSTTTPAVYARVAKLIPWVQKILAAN

[3] = target: T4, NFKB inhibitor beta, transcript variant 1 (human, UniProt Q15653 1-356)
T4 construct: also called NFKBIB
T4 sequence: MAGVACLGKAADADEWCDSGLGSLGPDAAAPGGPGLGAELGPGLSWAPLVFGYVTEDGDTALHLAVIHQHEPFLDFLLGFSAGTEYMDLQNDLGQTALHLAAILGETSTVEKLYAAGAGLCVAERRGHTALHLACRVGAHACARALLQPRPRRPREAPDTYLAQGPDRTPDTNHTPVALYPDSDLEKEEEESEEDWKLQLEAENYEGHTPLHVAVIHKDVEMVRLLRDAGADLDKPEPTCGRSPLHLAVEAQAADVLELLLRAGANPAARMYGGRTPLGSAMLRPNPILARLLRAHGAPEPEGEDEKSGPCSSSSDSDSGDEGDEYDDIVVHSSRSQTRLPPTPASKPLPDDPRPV

[4] = target: T5, cyclin dependent kinase 2 associated protein 2, transcript variant 1 (human, UniProt O75956 1-126)
T5 construct: also called CDK2AP2
T5 sequence: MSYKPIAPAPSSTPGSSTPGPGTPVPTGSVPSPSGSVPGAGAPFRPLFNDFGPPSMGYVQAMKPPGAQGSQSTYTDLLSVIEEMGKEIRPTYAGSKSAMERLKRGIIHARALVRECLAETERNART

[5] = target: T6, transforming growth factor beta induced (human, UniProt Q15582 24-683, limits assumed)
T6 construct: also called TGFBI
T6 sequence: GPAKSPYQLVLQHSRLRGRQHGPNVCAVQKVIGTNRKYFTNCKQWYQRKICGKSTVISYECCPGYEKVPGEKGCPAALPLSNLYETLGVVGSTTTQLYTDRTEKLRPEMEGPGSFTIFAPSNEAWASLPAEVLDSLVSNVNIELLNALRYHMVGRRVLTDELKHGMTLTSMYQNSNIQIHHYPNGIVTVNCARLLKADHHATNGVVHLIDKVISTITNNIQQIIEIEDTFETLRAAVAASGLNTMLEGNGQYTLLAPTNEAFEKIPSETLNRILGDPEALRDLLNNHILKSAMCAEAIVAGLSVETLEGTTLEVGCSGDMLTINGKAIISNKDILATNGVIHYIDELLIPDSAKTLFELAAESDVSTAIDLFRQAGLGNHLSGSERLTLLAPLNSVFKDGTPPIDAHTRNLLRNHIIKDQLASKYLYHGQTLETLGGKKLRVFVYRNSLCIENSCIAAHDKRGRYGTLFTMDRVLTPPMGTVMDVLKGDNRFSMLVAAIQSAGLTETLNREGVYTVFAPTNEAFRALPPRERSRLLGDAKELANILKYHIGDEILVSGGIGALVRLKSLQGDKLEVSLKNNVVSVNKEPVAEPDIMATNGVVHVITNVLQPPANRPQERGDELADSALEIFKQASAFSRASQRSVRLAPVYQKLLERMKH

[6] = target: BCL2 apoptosis regulator, transcript variant alpha (human, UniProt P10415 1-239)
BCL2 apoptosis regulator, transcript variant alpha, sequence (P10415 whole entry, change not shown): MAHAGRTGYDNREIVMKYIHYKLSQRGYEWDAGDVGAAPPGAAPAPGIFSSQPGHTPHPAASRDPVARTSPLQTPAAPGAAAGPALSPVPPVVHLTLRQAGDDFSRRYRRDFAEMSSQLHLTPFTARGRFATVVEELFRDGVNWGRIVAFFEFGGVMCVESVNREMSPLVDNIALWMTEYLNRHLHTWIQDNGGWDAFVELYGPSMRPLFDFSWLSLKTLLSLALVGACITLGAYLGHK

[7] = target: T7, phosphoglucomutase 2 like 1 (human, UniProt Q6PCE3 1-622 at identity 1.00), limits assumed)
T7 construct: also called PGM2L1
T7 sequence: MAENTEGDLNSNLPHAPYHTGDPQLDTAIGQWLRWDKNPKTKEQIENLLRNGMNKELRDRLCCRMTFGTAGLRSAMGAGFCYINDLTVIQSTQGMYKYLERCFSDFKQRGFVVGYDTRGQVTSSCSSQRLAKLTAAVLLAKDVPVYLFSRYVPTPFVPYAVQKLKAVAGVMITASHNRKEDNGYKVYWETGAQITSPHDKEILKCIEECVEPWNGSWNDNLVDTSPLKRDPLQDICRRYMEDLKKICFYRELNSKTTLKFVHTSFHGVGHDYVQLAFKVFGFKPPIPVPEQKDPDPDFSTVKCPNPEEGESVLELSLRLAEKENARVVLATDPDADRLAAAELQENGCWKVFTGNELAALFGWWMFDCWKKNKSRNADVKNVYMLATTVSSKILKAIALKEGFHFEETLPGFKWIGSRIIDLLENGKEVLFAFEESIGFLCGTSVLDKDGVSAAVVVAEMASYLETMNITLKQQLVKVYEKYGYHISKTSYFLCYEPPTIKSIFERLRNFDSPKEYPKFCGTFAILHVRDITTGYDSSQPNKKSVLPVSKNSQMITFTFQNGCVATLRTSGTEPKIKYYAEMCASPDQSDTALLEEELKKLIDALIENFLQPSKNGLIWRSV

programmed cell death 1 = target: T8, programmed cell death 1 (human, UniProt Q15116 25-288, limits assumed)
T8 construct: also called PDCD1
T8 sequence (Q15116 25-288 limits assumed): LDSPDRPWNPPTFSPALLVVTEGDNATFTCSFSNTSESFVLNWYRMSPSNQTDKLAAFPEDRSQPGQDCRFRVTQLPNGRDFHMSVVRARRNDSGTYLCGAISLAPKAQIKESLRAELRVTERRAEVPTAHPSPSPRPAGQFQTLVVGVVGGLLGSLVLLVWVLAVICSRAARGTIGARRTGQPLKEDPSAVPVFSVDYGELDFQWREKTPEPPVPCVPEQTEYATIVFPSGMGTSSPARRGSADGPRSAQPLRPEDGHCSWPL

[8] = target: T9, glyoxylate and hydroxypyruvate reductase (human, UniProt Q9UBQ7 1-328)
T9 construct: also called GRHPR
T9 sequence: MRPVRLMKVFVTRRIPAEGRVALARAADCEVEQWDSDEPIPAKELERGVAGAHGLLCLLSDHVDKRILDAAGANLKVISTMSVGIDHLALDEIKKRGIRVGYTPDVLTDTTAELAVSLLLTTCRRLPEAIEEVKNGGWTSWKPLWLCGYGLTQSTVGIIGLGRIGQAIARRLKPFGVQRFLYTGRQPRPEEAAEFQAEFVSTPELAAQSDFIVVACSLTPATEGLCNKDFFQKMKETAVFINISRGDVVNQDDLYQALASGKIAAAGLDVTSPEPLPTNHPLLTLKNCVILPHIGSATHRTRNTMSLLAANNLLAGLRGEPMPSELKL

B1: TSTO1002 (antibody, V domains shown)
VH: EVQLVESGGGLVKPGGSLRLSCAASGFTFSNAWMNWVRQTPGKGLEWVGRIKTKTDGGTTDYAEPVKGRFTISRDDSKNTLYLQMNSLKTEDTAVYYCTRGAVADYWGQGTQVTVSS
VL: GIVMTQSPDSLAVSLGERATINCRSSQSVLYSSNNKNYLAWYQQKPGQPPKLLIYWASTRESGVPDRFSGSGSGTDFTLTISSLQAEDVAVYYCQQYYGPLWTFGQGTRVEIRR
binding result [1]: binds

B2: TSTO1003 (antibody, V domains shown)
VH: QVQLKQSGGGVVQPGRSLTLSCVASGLTFSDYGMHWVRQAPGKGLEWVAVIWHDGSKTNYADSVKGRIIISRDNSKSTVYLQMNRLRGEDTAVYYCATSHGGLVPGGENYWGQGTLVTVSS
VL: SDELTQPPSVSVSPGQTARITCSGDALAKEYAYWYQQKSGQAPVLVISKDTERPSGIPARFSGSSSGTTVTLTISGVQSDDEADYYCQSADSSLTYWLFGGGTKLTVLR
binding result [2]: binds

B3: TSTO1004 (antibody, V domains shown)
VH: QVQLVQSGSELKKPGASVKVSCTSSGYVFTSFGVSWVRQVPGQGPEWMGWISPYTRQTKYAQSLQGRITLTADTSTNTTYMELRSLRSDDTAMYYCVREEFGVVRGPNPFDVWGQGTMVTVSS
VL: DIQMTQAPSTLSASVGDRVSITCRASQNIRDFLAWYQQKPGRAPDLLIYRASTLEKGVSARFSGSGSGTEFTLTITGLQPDDFATYYCQQYSDYSTFGGGTRVEIK
binding result (chymotrypsinogen B2): binds

B4: TSTO1005 (antibody, V domains shown)
VH: EVQLVESGGGVVQPGGSLRLSCAASGFTFEDFGMHWVRQAPGKGLEWVAFTRFDGSEKYYVDSVKGRFTVSRDNSKNTLFLHMNSLRPEDTAVYYCAKTRSYSSADTTRPNAPGYWGQGTLVTVSS
VL: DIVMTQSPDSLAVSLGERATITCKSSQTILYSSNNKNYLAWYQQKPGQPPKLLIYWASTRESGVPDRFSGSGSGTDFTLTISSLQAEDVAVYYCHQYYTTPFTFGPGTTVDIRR
binding result [3]: binds
binding result [4]: binds

B5: TSTO1008 (antibody, V domains shown)
VH: AVQLVQSGAEVKKPGESLRISCKGSGYSFSTYWIIWVRQMPGKGLEWIGRFDPSDSYNVNSPSFQGHVTISADTSINTAYLQWSSLKASDSAMYYCARRSDKAVPGTFDQWGQGTLVTVSS
VL: RSVLTQPPSVSAAPGQKVIISCSGSSSNIGNNYVSWYQQFLGTAPKLLIYDTDKRPSGIPDRFSGSKSGTSATLGITGLQTGDEAHYYCATWDSSLRAGPVVFGGGTKLTVLG
binding result [5]: binds

B6: TSTO1010 (antibody, V domains shown)
VH: EVQLVESGGGLVKPRGSLRLSCAASGFTFSAYGMNWVRQAPGKGLEWVSSISGDSRDIYYGASMKGRFTISRDNAKSSLYLQMNSLRAEDTAVYYCARGEGGELWAFDYWGLGVLVTVSS
VL: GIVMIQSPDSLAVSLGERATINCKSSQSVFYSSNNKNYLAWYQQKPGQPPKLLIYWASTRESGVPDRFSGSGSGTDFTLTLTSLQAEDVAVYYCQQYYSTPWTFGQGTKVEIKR
binding result [6]: binds

B7: TTES1002 (antibody, V domains shown)
VH: QVQLQESGPGLVKPSETLSLICTVSGASVNSGTHFWSWIRQPPGKGLEWIGYVYYSGNTNYNPSLKSRVAISVDTSKNQFSLKLTSVTSADTAVYYCARDFDDGYDIRYWGQGTRVSVSS
VL: QSALTQPASVSGSPGQSITISCTGSSNDIGRYKYVSWFQHHPGRAPKLIIYEVNNRPSGLSHRFSGSKSGNTASLTISGLQAEDEADYYCCSYTSSLTYVFGTGTAVTVL
binding result [7]: binds

B8: TTES1003 (antibody, V domains shown)
VH: VVQLVESGGGLVQPGGSLRLSCSASGFTFSSYAMHWVRQAPGKGLEYVSAISSNGGSTYYADSVKGRFTISRDNSKNTLYLQMSSLRAEDTAVYYCVKSPVAANDAFDIWGQGTMVTVSS
VL: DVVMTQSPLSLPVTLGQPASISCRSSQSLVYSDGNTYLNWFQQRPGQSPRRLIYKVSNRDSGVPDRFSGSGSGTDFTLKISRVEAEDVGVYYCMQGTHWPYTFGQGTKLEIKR
binding result (programmed cell death 1): binds

B9: TTES1004 (antibody, V domains shown)
VH: EVQLVESGGGLVQPGGSLRLSCVASGFTFSSYSMNWVRQAPGKGLKWVSYISSSRSTIYNADSVKGRFTISRDNAKKSLYLQMNSLRAEDTAVYYCARVSVAAPTCLDYWGQGTLVTVSS
VL: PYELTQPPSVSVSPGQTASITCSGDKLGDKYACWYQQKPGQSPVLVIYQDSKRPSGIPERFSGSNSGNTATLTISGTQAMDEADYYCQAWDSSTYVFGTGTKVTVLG
binding result [8]: binds
